Results published in US20100062984A1, “FGF-23 POLYPEPTIDES” (priority 2007, published 2010).
“And” between values parts separate entries of the source, which are not always exact repeats. Equal values may be shown once.

B1: FGF-23(25-251): full-length recombinant human FGF-23(25-251) polypeptide expressed in E. coli, SEQ ID NO: 1 (protein, listed as Homo sapiens)
chain: YPNASPLLGSSWGGLIHLYTATARNSYHLQIHKNGHVDGAPHQTIYSALMIRSEDAGFVVITGVMSRRYLCMDFRGNIFGSHYFDPENCRFQHQTLENGYDVYHSPQYHFLVSLGRAKRAFLPGMNPPPYSQFLSRRNEIPLIHFNTPIPRRHTRSAEDDSERDPLNVLKPRARMTPAPASCSQELPSAEDNSPMASDPLGVVRGGRVNTHAGGTGPEGCRPFAKFI
B2: FGF-23(176-251): synthetic FGF-23 fragment, residues 176-251, SEQ ID NO: 2 (peptide, listed as Homo sapiens)
chain: RHTRSAEDDSERDPLNVLKPRARMTPAPASCSQELPSAEDNSPMASDPLGVVRGGRVNTHAGGTGPEGCRPFAKFI
B3: FGF-23(180-251): synthetic FGF-23 fragment, residues 180-251, SEQ ID NO: 3 (peptide, listed as Homo sapiens)
chain: SAEDDSERDPLNVLKPRARMTPAPASCSQELPSAEDNSPMASDPLGVVRGGRVNTHAGGTGPEGCRPFAKFI
B4: FGF-23(184-251): synthetic FGF-23 fragment, residues 184-251, SEQ ID NO: 4 (peptide, listed as Homo sapiens)
chain: DSERDPLNVLKPRARMTPAPASCSQELPSAEDNSPMASDPLGVVRGGRVNTHAGGTGPEGCRPFAKFI

Experiments:
normal rats = experiment: Acute intravenous infusion of equimolar FGF-23 polypeptides in anesthetized rats, renal clearance; format: in vivo, rat; conditions: for FENa (fractional excretion of sodium), control clearance / FEPi (fractional excretion of phosphate), control clearance: C = control clearance before infusion; for FENa (fractional excretion of sodium), control clearance / FEPi (fractional excretion of phosphate), control clearance / FENa (fractional excretion of sodium), experimental clearance / FEPi (fractional excretion of phosphate), experimental clearance: mean ± SE; for FENa (fractional excretion of sodium), experimental clearance / FEPi (fractional excretion of phosphate), experimental clearance: E = experimental clearance, i.v. infusion 1.24 nmol/kg/hour
Protocol: Male Sprague Dawley rats weighing 300 g were purchased from Harlan Sprague Dawley Inc. (Madison Wis.). They were fed a standard rodent diet containing 0.7% phosphate and 0.5% calcium. All animals were fasted overnight prior to the experiment. On the day of the experiment, rats were anesthetized with an intraperitoneal injection of 100-150 mg/kg body weight of 5-sec-butyl-ethyl-2-thiobarbituricacid (Inactin, Byk Gulden Konstanz, Hamburg, Germany). The rats were placed on a heated table to maintain body temperature between 36-38° C. After a tracheostomy, a PE 50 catheter was placed in the left carotid artery to monitor mean arterial blood pressure (MAP) and to collect blood samples. Catheters were also placed in the left and right jugular veins for infusions. A solution containing 2% inulin in 0.9% NaCl plus 4.5% BSA was infused at a rate of 1.2 mL/hour in one catheter, and 0.9% NaCl was infused in the other catheter at a rate of 1.2 mL/hour. A catheter (PE 90) was placed in the bladder for urine collection. Acute infusion studies were performed using the following seven different groups of animals.
Group 1: Vehicle Time control (n=8). After a ninety-minute recovery period, one […] urine sample was taken (C1) and a blood sample was taken. One hour later a second 60-minute clearance was taken (C2).
Group 2: Effect of acute infusion of full length FGF-23 polypeptide (1.24 nmol/kg/hour, n=8). This protocol is identical to group 1 except that after the control collections, full-length recombinant FGF-23 polypeptide was added to the 0.9% saline infusion to deliver 1.24 nmol/kg/hour of full length FGF-23 polypeptide. After one hour of infusion, a sixty-minute clearance was taken.
Group 3: Effect of acute infusion of FGF-23(176-251) polypeptide (1.24 nmol/kg/hour, n=8). This protocol is identical to group 2 except for the sequence of the infused polypeptide.
Group 4: Effect of acute infusion of FGF-23(180-251) polypeptide (1.24 nmol/kg/hour, n=8). This protocol is identical to group 2 except for the sequence of the infused polypeptide.
Group 5: Effect of infusion of FGF-23(184-251) polypeptide (1.24 nmol/kg/hour, n=8). This protocol is identical to group 2 except for the sequence of the infused polypeptide.
Group 6: Effect of infusion of FGF-23(206-251) polypeptide (1.24 nmol/kg/hour, n=6). This protocol is identical to group 2 except for the sequence of the infused polypeptide.
Group 7: Effect of infusion of FGF-23(180-205) polypeptide (1.24 nmol/kg/hour, n=6). This protocol is identical to group 2 except for the sequence of the infused polypeptide.
(§1) Plasma and urine phosphate concentrations were determined using the method of Chen (Chen et al., Anal Chem., 28:1756-1758 (1956)). Inulin concentrations in plasma and urine were determined using the anthrone method (Führ et al., Klin. Wochenschr., 33.:729-730 (1955)). Sodium concentrations in urine were determined by ion selective electrode (EasyLyte Plus Analyzer, Medica Corp., Bedford, Mass.). Calcium concentrations were measured using atomic absorption spectrometry (Kumar et al., Biochemistry, 15:2420-2423 (1976)) with a Perkin Elmer Model 3300 Atomic Absorption Spectrometer (Perkin Elmer, Boston, Mass.). Serum 1α,25(OH)2D concentrations were measured using an RIA kit (Diasorin, Stillwater, Minn.).
Statistically significant differences between groups were evaluated by Student's t-test for comparison between two groups or by one-way analysis of variance (ANOVA) followed by Tukey's test for multiple comparisons. All values were expressed as mean±SE. A p value less than 0.05 was considered to be statistically significant.

Fgf-23−/− mice = experiment: Intraperitoneal injection into Fgf-23−/− mice, serum phosphate; format: in vivo, mouse
Protocol: To further examine the in vivo phosphaturic activity of the smallest FGF-23 fragment, 0.2 nmoles of FGF-23(180-205) polypeptide were injected twice intraperitoneally into Fgf-23^−/− mice. FGF-23 R176Q polypeptide was similarly injected into the mutant mice as a positive control, and saline was injected as a vehicle control. Fgf-23^−/− animals were generated as reported elsewhere (Sitara et al., Matrix Biol., 23:421-432 (2004)). To determine the in vivo effects of the C-terminal fragment FGF23(180-205) in the absence of endogenous FGF-23 activity, equimolar amounts (0.2 nmoles) of FGF-23 R176Q polypeptide, FGF-23(180-205) polypeptide, and vehicle (saline) were injected twice intraperitoneally into Fgf-23^−/− mice at 0 and 8 hours. Blood was obtained by tail bleeding or cheek pouch puncture of 3- to 6-week-old Fgf-23^−/− animals, 8 hours after the second injection (at 16 hours). Serum levels of phosphate were determined in pre- and post-injection mice using the Stanbio LiquiUV kit (Stanbio Laboratory, Boerne, Tex.).

[1] = test system: opossum proximal tubular epithelial cells (OK); experiment: OK cell Pi uptake assay; format: cell-based
Protocol: The OK cell Pi uptake assay was performed as described by Bowe et al. (Biochem Biophys Res Commun., 284:977-981 (2001)).

NaPi IIa-V5 = experiment: Surface expression of V5-tagged Na+-Pi IIa transporter in OK cells (immunofluorescence); format: cell-based, opossum; conditions: OK cells expressing V5-tagged transporter, three hour treatment
Protocol: To assess the mechanism by which these agents altered phosphate transport, the surface expression of an epitope tagged sodium phosphate transporter, NaPi IIa-V5, was examined. An OK cell line stably expressing a VS-tagged Na+-Pi IIa transporter was generated as described elsewhere (Berndt et al., Pflugers Arch., 451:579-587 (2006)). The presence of the transporter on the cell surface of OK-N+-Pi-IIa-V5 cells was carried out using immunohistochemical methods and reagents described elsewhere (Berndt et al., Pflugers Arch., 451:579-587 (2006)).

rats = experiment: Chronic (72 hour) intraperitoneal administration in rats, serum phosphate and 1α,25(OH)2D; format: in vivo, rat; conditions: chronic (72 hour) administration, i.p. every 12 hours for three days
Protocol: as §1
Chronic animal studies were performed to determine the effect of chronic (72 hour) administration of FGF-23(176-251) polypeptide (1.24 nmol/kg/hour, n=5) or vehicle (PBS+0.1% BSA, n=6) on serum phosphate and 1α, 25 (OH)2 D concentrations. Rats received an intraperitoneal injection of FGF-23(176-251) polypeptide in 0.5 mL of normal saline every 12 hours for three days. At the end of three days, the animals were anesthetized and a terminal blood sample was taken.

[2] = acute i.v. infusion of equimolar doses, rats
[3] = listed as full length recombinant FGF-23 polypeptide

Row | Molecule | FENa (fractional excretion of sodium), control clearance (normal rats) | FEPi (fractional excretion of phosphate), control clearance (normal rats) [%] | FENa (fractional excretion of sodium), experimental clearance (normal rats) | FEPi (fractional excretion of phosphate), experimental clearance (normal rats) | Effect on phosphate excretion (in words) (normal rats; [2]) | Radiolabeled phosphorus uptake (in words) [1] | Amount of NaPiIIa-V5 detected on the cell surface (in words) (NaPi IIa-V5) | also measured
1 | FGF-23(180-205): synthetic FGF-23 fragment, residues 180-205, SAEDDSERDPLNVLKPRARMTPAPAS, SEQ ID NO: 6 (listed as Homo sapiens) | 0.4±0.1% and 0.39 ± 0.11% | 10±2 | 1.0±0.2% and 1.01 ± 0.21 % | 20±2% | increases phosphate excretion significantly | – | – | Serum phosphate level post-injection (Fgf-23−/− mice; 0.2 nmoles i.p. at 0 and 8 hours, blood at 16 hours, p<0.01 vs pre-injection, in mg/dL (unit assumed)): 10.95±0.62; Serum phosphate level pre-injection (Fgf-23−/− mice; before injection, in mg/dL (unit assumed)): 14.64±0.51
2 | FGF-23(206-251): synthetic FGF-23 fragment, residues 206-251, SEQ ID NO: 5 (CSQELPSAEDNSPMASDPLGVVRGGRVNTHAGGTGPEGCRPFAKFI; listed as Homo sapiens) | 0.19 ± 0.04% | 22 ± 5 | 0.22 ± 0.05^ % | 29 ± 2^ % | did not increase | – | – | Effect on sodium excretion (in words) (normal rats; [2]): did not increase
3 | B1 | – | – | – | – | – | directly inhibited | significant decreases | FENa (fractional excretion of sodium), control clearance (normal rats; listed as FGF-23 Full Length): 0.26 ± 0.14%; FEPi (fractional excretion of phosphate), control clearance (normal rats; listed as FGF-23 Full Length): 14 ± 3%; FENa (fractional excretion of sodium), control clearance (normal rats; [3]): 0.3±0.1%; FEPi (fractional excretion of phosphate), control clearance (normal rats; [3]): 14±3%; FENa (fractional excretion of sodium), experimental clearance (normal rats; listed as FGF-23 Full Length): 0.76 ± 0.15 %; FEPi (fractional excretion of phosphate), experimental clearance (normal rats; listed as FGF-23 Full Length): 32 ± 5 %; FENa (fractional excretion of sodium), experimental clearance (normal rats; [3]): 0.7±0.2%; FEPi (fractional excretion of phosphate), experimental clearance (normal rats; [3]): 32±5%; FE Ca after infusion (normal rats; acute i.v. infusion 1.24 nmol/kg/hour): 10.0±2.3%; FE Ca before infusion (normal rats; control period before infusion): 4.1±1.2%
4 | B2 | 0.90±0.15% and 0.87 ± 0.15% | 15±2 | 1.21±0.17% | 33±2% | – | – | – | Serum phosphate concentration (rats; vehicle 2.19±0.11 mM, p=0.062): 1.85 ± 0.12 mM; Serum 1α,25(OH)2D concentration (rats; vehicle 114±7 pg/mL, p<0.05): 76 ± 11 pg/mL; Effect on serum Pi concentrations (in words) (Fgf-23−/− mice; given intraperitoneally): reduced
5 | B3 | 0.20±0.07% and 0.17 ± 0.07% | 14±3 | 0.80±0.17% and 0.76 ± 0.17 % | 26±3% | increases phosphate excretion significantly | directly inhibited | significant decreases | –
6 | B4 | 0.3±0.1% and 0.27 ± 0.09% | 16±3 | 0.6±0.16% and 0.63 ± 0.16 % | 28±3% | increases phosphate excretion significantly | – | – | –
